Experimental findings from US20210380667A1 (NOVOZYMES A S, published 2021) are described below.

Experiment [1] addresses B. lentus protease variant having the amino acid sequence of SEQ ID NO: 2 with the substitutions S9E N43R N76D V205I Q206L Y209W S259D N261W L262E (Bacillus lentus), P29600. Kind of experiment: cell-based or functional assay.
Experiment [2] addresses T1, B. lentus protease having SEQ ID NO: 2 (Savinase) (Bacillus lentus, UniProt P29600 1-269).
T1 sequence: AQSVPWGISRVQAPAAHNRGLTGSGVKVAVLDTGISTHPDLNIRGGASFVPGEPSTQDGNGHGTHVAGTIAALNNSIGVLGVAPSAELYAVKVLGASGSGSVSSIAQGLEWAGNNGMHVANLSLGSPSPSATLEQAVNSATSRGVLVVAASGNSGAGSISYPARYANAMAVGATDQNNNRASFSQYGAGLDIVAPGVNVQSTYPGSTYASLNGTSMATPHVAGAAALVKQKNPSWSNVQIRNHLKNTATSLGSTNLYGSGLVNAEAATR
Kind of experiment: cell-based or functional assay.

B1: CI-2A variant (CI08) K21H+P25S+E26H+K30H+E33H (protein)
chain: HNLHTEWSHLVGHSVHEAKKVILQDKPEAQIIVLPVGTIVTMEYRIDRVRLFVDKLDNIAQVPRVG
As for B1, the pH value at which the released protease activity peaks in experiment [1] is 3.5 to 4 pH.

B2: CI-2A variant (CI10) K30H+E33H+K43H+P44A+P52A, P01053 19-84 (protein)
chain: HNLKTEWPELVGHSVHEAKKVILQDHAEAQIIVLAVGTIVTMEYRIDRVRLFVDKLDNIAQVPRVG
Turning to B2, the pH value at which the released protease activity peaks in experiment [1] lay within 3.5 to 4 pH.

B3: CI-2A wildtype having the amino acid sequence of the mature protein of SEQ ID NO:1 (barley chymotrypsin inhibitor 2a) (other)
chain: HNLKTEWPELVGKSVEEAKKVILQDKPEAQIIVLPVGTIVTMEYRIDRVRLFVDKLDNIAQVPRVG
Turning to B3, the results for the pH value at which the released protease activity peaks in experiment [1] and in experiment [2] were 3 pH and approximately 3.5 pH, respectively.
